Measurements reported in PMC3414502.

Target: CPM-PH-PLCß2 (N-terminal PH domain of PLCβ2)
Test: other fluorescence titration; unlabelled γ-synuclein added in steps to CPM-labelled protein in solution (2 nM CPM-PLCβ2, also 0.5 nM); increase of CPM intensity; 20 mM Hepes pH 7.2, 160 mM NaCl, 1 mM DTT

Human γ-synuclein, sequence (O76070 whole entry): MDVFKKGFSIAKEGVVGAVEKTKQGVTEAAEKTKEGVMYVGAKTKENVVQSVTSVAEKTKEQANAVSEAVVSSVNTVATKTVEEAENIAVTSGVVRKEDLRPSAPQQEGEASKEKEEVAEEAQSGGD
CPM-PH-PLCß2 (N-terminal PH domain of PLCβ2), sequence (Q00722 whole entry, the tested form may be a part): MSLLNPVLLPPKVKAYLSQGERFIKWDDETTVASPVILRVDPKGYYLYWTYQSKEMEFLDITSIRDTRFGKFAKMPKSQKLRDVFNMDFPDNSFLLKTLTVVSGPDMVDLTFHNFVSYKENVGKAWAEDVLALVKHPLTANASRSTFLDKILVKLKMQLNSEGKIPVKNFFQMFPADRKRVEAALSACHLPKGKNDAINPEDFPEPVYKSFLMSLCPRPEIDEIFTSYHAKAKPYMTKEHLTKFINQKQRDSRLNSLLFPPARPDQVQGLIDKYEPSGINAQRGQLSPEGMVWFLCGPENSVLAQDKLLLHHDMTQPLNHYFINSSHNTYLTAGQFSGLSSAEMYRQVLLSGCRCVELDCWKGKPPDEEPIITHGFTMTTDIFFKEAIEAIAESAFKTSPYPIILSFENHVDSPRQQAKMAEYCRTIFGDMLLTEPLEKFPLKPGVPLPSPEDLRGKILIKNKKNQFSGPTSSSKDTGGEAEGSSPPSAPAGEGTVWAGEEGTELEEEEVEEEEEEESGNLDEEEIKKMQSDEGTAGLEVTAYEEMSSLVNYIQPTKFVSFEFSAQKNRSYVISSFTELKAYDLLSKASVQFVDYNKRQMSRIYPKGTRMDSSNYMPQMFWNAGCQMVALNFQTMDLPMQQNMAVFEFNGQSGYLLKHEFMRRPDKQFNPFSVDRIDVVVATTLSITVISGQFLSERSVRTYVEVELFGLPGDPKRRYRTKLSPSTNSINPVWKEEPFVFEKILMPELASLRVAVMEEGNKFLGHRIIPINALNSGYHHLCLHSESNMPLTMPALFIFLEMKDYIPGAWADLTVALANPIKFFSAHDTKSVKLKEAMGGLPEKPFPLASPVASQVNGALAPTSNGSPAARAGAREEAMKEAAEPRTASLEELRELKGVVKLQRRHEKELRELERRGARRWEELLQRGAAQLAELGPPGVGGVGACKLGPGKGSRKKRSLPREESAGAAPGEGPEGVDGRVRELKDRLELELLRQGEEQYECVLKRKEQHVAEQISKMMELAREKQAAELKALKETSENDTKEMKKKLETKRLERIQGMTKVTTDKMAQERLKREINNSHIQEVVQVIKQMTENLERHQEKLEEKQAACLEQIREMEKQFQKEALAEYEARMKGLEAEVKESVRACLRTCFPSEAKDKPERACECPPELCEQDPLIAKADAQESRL

fold weaker affinity than for full length CPM-PLCβ2: > 50 fold
Substance: Human γ-synuclein (from UniProt O76070 1-127) (natural protein)
